According to the supplement of paper PMC11136658:

Test system: peptide library, one residue held at a place counted from the Y acceptor
Experiment: relative phosphorylation of the sub-library (ratio to the mean residue at this position); higher = residue favoured
Outline: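 Each value expresses phosphorylation relative to the mean randomized residue. Purified recombinant kinases acted for 90 min in 384-well plates on biotinylated Tyr-centred peptide library mixtures, with one residue fixed at one position from −5 to +5, in the presence of 50 μM ATP with γ-32P-ATP. Signals were read by phosphorimaging after capture on streptavidin membranes, then normalized per position to the sum of the 18 randomized residues (16 in the Ser/Thr-free library) and multiplied by that number.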

Chain of EPHB4, construct: aa561-end, human (P54760 561-987, looked up): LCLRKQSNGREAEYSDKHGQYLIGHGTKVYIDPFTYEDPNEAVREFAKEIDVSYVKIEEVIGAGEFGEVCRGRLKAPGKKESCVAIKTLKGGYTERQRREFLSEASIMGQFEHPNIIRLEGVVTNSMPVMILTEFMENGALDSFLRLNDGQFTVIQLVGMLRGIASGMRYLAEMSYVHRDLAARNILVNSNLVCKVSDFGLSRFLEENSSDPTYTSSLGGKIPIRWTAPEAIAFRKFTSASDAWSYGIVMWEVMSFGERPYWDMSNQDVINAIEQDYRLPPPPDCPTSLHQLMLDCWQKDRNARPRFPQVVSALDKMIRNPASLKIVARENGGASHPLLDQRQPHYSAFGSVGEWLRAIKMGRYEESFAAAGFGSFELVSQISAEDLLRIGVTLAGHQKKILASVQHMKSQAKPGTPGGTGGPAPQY

EPHB4, construct: aa561-end, human (from UniProt P54760)
relative phosphorylation
Conditions | at +1 | at +2 | at +3 | at +4 | at +5 | at -1 | at -2 | at -3 | at -4 | at -5
A fixed | 2.01 | 0.93 | 0.981 | 0.836 | 0.988 | 0.59 | 1.26 | 0.954 | 1.17 | 1.05
D fixed | 0.98 | 0.854 | 0.481 | 0.969 | 1.18 | 2.38 | 1.15 | 1.32 | 1.09 | 1.12
E fixed | 2.09 | 1.19 | 0.409 | 1 | 0.934 | 1.38 | 1.07 | 1.52 | 1.14 | 0.945
F fixed | 0.651 | 1.15 | 1.06 | 1.01 | 0.879 | 0.933 | 0.628 | 1.16 | 0.904 | 0.895
G fixed | 1.03 | 0.54 | 0.694 | 1.16 | 1.22 | 0.36 | 1.17 | 0.986 | 1.39 | 1.38
H fixed | 0.482 | 0.782 | 1.08 | 1.16 | 0.89 | 0.577 | 0.911 | 0.93 | 0.941 | 0.998
I fixed | 1.02 | 1.19 | 1.47 | 0.663 | 0.675 | 1.91 | 0.772 | 0.996 | 0.965 | 0.775
K fixed | 0.404 | 0.755 | 0.464 | 0.907 | 0.959 | 0.357 | 0.99 | 0.674 | 0.953 | 1.05
L fixed | 0.774 | 0.955 | 1.49 | 0.792 | 0.77 | 1.77 | 0.834 | 0.82 | 0.797 | 0.838
M fixed | 1.36 | 0.914 | 1.25 | 0.969 | 0.934 | 0.806 | 0.722 | 0.8 | 0.962 | 0.949
N fixed | 0.489 | 1.05 | 0.698 | 0.947 | 1.03 | 2.07 | 1 | 1.13 | 0.889 | 1.03
P fixed | 0.319 | 0.821 | 1.46 | 1.29 | 1.45 | 0.513 | 1.6 | 1.21 | 1.35 | 1.27
Q fixed | 1.35 | 1.03 | 0.884 | 1.04 | 1.02 | 0.501 | 1.13 | 0.863 | 1.12 | 0.907
R fixed | 0.455 | 1.08 | 0.624 | 1.14 | 1.13 | 0.389 | 1 | 0.871 | 0.989 | 1.17
S fixed | 1.05 | 0.937 | 0.945 | 0.974 | 1.18 | 0.572 | 1.57 | 1 | 0.915 | 0.953
T fixed | 0.833 | 1.1 | 0.832 | 0.984 | 1.05 | 1.08 | 0.863 | 0.843 | 0.696 | 0.905
V fixed | 1.75 | 1.37 | 1.73 | 0.792 | 0.716 | 1.04 | 0.758 | 0.825 | 0.874 | 0.8
W fixed | 0.957 | 1.36 | 1.45 | 1.36 | 0.991 | 0.773 | 0.567 | 1.1 | 0.859 | 0.97
pThr fixed | 1.45 | 1.7 | 0.467 | 0.855 | 0.682 | 1.61 | 0.917 | 0.96 | 0.855 | 0.898
pTyr fixed | 1.36 | 3.59 | 0.719 | 0.965 | 1.04 | 2.25 | 0.931 | 1.17 | 1.08 | 1.11
